Like-named read-outs stand apart in the source and are kept apart here.
Experiments:
AUC [1] = target: the molecule itself; assay: AUC
AUC [2] = target: the molecule itself; assay: AUC; remark: listed apart in the source

Row | Protein | stoichiometry N (AUC [1]) | stoichiometry N (AUC [2])
1 | Rhizobium etli pyruvate carboxylase, wild type (enzyme, biotin prosthetic group (enzymic biotin; residue not given)) PISKILVANRSEIAIRVFRAANELGIKTVAIWAEEDKLALHRFKADESYQVGRGPHLARDLGPIESYLSIDEVIRVAKLSGADAIHPGYGLLSESPEFVDACNKAGIIFIGPKADTMRQLGNKVAARNLAISVGVPVVPATEPLPDDMAEVAKMAAAIGYPVMLKASWGGGGRGMRVIRSEADLAKEVTEAKREAMAAFGKDEVYLEKLVERARHVESQILGDTHGNVVHLFERDCSVQRRNQKVVERAPAPYLSEAQRQELAAYSLKIAGATNYIGAGTVEYLMDADTGKFYFIEVNPRIQVEHTVTEVVTGIDIVKAQIHILDGAAIGTPQSGVPNQEDIRLNGHALQCRVTTEDPEHNFIPDYGRITAYRSASGFGIRLDGGTSYSGAIITRYYDPLLVKVTAWAPNPLEAISRMDRALREFRIRGVATNLTFLEAIIGHPKFRDNSYTTRFIDTTPELFQQVKRQDRATKLLTYLADVTVNGHPEAKDRPKPLENAARPVVPYANGNGVKDGTKQLLDTLGPKKFGEWMRNEKRVLLTDTTMRDGHQSLLATRMRTYDIARIAGTYSHALPNLLSLECWGGATFDVSMRFLTEDPWERLALIREGAPNLLLQMLLRGANGVGYTNYPDNVVKYFVRQAAKGGIDLFRVFDCLNWVENMRVSMDAIAEENKLCEAAICYTGDILNSARPKYDLKYYTNLAVELEKAGAHIIAVKDMAGLLKPAAAKVLFKALREATGLPIHFHTHDTSGIAAATVLAAVEAGVDAVDAAMDALSGNTSQPCLGSIVEALSGSERDPGLDPAWIRRISFYWEAVRNQYAAFESDLKGPASEVYLHEMPGGQFTNLKEQARSLGLETRWHQVAQAYADANQMFGDIVKVTPSSKVVGDMALMMVSQDLTVADVVSPDREVSFPESVVSMLKGDLGQPPSGWPEALQKKALKGEKPYTVRPGSLLKEADLDAERKVIEKKLEREVSDFEFASYLMYPKVFTDFALASDTYGPVSVLPTPAYFYGLADGEELFADIEKGKTLVIVNQAVSATDSQGMVTVFFELNGQPRRIKVPDRAHGATGAAVRRKAEPGNAAHVGAPMPGVISRVFVSSGQAVNAGDVLVSIEAMKMETAIHAEKDGTIAEVLVKAGDQIDAKDLLAVYGG | 4 | 4
2 | Rhizobium etli pyruvate carboxylase, H216N mutant (enzyme, biotin prosthetic group (enzymic biotin; residue not given)) PISKILVANRSEIAIRVFRAANELGIKTVAIWAEEDKLALHRFKADESYQVGRGPHLARDLGPIESYLSIDEVIRVAKLSGADAIHPGYGLLSESPEFVDACNKAGIIFIGPKADTMRQLGNKVAARNLAISVGVPVVPATEPLPDDMAEVAKMAAAIGYPVMLKASWGGGGRGMRVIRSEADLAKEVTEAKREAMAAFGKDEVYLEKLVERARNVESQILGDTHGNVVHLFERDCSVQRRNQKVVERAPAPYLSEAQRQELAAYSLKIAGATNYIGAGTVEYLMDADTGKFYFIEVNPRIQVEHTVTEVVTGIDIVKAQIHILDGAAIGTPQSGVPNQEDIRLNGHALQCRVTTEDPEHNFIPDYGRITAYRSASGFGIRLDGGTSYSGAIITRYYDPLLVKVTAWAPNPLEAISRMDRALREFRIRGVATNLTFLEAIIGHPKFRDNSYTTRFIDTTPELFQQVKRQDRATKLLTYLADVTVNGHPEAKDRPKPLENAARPVVPYANGNGVKDGTKQLLDTLGPKKFGEWMRNEKRVLLTDTTMRDGHQSLLATRMRTYDIARIAGTYSHALPNLLSLECWGGATFDVSMRFLTEDPWERLALIREGAPNLLLQMLLRGANGVGYTNYPDNVVKYFVRQAAKGGIDLFRVFDCLNWVENMRVSMDAIAEENKLCEAAICYTGDILNSARPKYDLKYYTNLAVELEKAGAHIIAVKDMAGLLKPAAAKVLFKALREATGLPIHFHTHDTSGIAAATVLAAVEAGVDAVDAAMDALSGNTSQPCLGSIVEALSGSERDPGLDPAWIRRISFYWEAVRNQYAAFESDLKGPASEVYLHEMPGGQFTNLKEQARSLGLETRWHQVAQAYADANQMFGDIVKVTPSSKVVGDMALMMVSQDLTVADVVSPDREVSFPESVVSMLKGDLGQPPSGWPEALQKKALKGEKPYTVRPGSLLKEADLDAERKVIEKKLEREVSDFEFASYLMYPKVFTDFALASDTYGPVSVLPTPAYFYGLADGEELFADIEKGKTLVIVNQAVSATDSQGMVTVFFELNGQPRRIKVPDRAHGATGAAVRRKAEPGNAAHVGAPMPGVISRVFVSSGQAVNAGDVLVSIEAMKMETAIHAEKDGTIAEVLVKAGDQIDAKDLLAVYGG | 4 | 4

— article PMC3985934 (Biochemistry, 2014)
